Data as given in US20110262446A1.
Substitutions are numbered along the chain they refer to. Values belong to the binder of their own block, whether it stands above or below them.

How the values were obtained:
[1] = target: IGF-IIE (amino acids 1-104) (human) (UniProt P01344); experiment: cell-based or functional assay
[2] = target: IGF-IIE (amino acids 1-104) (human) (UniProt P01344); experiment: SPR (Biacore), non-germlined IgG
[3] = target: IGF-IIE (amino acids 1-104) (human) (UniProt P01344); experiment: SPR (Biacore T100): IgG captured on Protein G', ligand bound, then BP injected; competitor BP4
[4] = target: IGF-IIE (amino acids 1-104) (human) (UniProt P01344); experiment: SPR (Biacore T100): IgG captured on Protein G', ligand bound, then BP injected; competitor BP2
[5] = target: IGF-IIE (amino acids 1-104) (human) (UniProt P01344); experiment: SPR (Biacore), germlined IgG
[6] = target: IGF-IIE (amino acids 1-104) (human) (UniProt P01344); experiment: competition SPR (Biacore T100), affinity in solution: Fab pre-incubated with ligand, free ligand read on immobilized huIR-A ECD; measurement #1; head prints 'KD nM'
[7] = target: IGF-IIE (amino acids 1-104) (human) (UniProt P01344); experiment: SPR (Flexchip), Fab, second of duplicate; unit inferred
[8] = target: IGF-IIE (amino acids 1-104) (human) (UniProt P01344); experiment: SPR (Flexchip), Fab, first of duplicate; unit inferred
[9] = target: IGF-IIE (amino acids 1-104) (human) (UniProt P01344); experiment: competition SPR (Biacore T100), affinity in solution: Fab pre-incubated with ligand, free ligand read on immobilized huIR-A ECD; measurement #2; head prints 'KD nM'

Sequence of IGF-IIE (amino acids 1-104) (human) (P01344 25-128 limits assumed, form in doubt): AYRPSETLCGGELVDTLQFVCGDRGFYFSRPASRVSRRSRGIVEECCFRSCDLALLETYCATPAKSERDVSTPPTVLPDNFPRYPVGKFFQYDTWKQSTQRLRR

B1: M0064-E04 IgG (antibody, V domains shown)
VH: EVQLLESGGGLVQPGGSLRLSCAASGFTFSVYDMNWVRQAPGKGLEWVSSISSSGGGTLYADSVKGRFTISRDNSKNTLYLQMNSLRAEDTAVYYCARDSDTSSYYWYYDLWGRGTLVTVSS
VL: DIQMTQSPSSLSASVGDRVTITCQASHDISNYLNWYQQKPGKAPKLLIYAASRLQSGVPSRFSGGGSGTDFSLTISSLQAEDFATYYCQQSYSFPRTFGQGTNLEIK
IC50, IGF-IIE stimulated BaF3 cell proliferation (Guava ViaCount) [1]: 130 nM | Kd [2]: 0.24 nM | competition score (0 = does not compete significantly, 5 = competes strongly) [3]: 4 score 0-5 | competition score (0 = does not compete significantly, 5 = competes strongly) [4]: 4 score 0-5

B2: X0005-H01 (germlined M0064-E04 IgG) (antibody, V domains shown)
VH: B1 VH
VL: B1 VL with G65S, S72T, A80P, N103R
Kd [5]: 0.26 nM

B5: X0008-A01 (germlined M0064-F02 IgG) (antibody, V domains shown)
VH: EVQLLESGGGLVQPGGSLRLSCAASGFTFSNYIMWWVRQAPGKGLEWVSVISSSGGMTRYADSVKGRFTISRDNSKNTLYLQMNSLRAEDTAVYYCARDNGDYVGEKGFDIWGQGTMVTVSS
VL: DIQMTQSPSSLSASVGDRVTITCRASQSISNYLNWYQQKPGKAPKLLIYTASTLQSGVPSRFSGSGSGTDFTLTISSLQPEDFATYYCQQSYNSPWTFGQGTKVEIK
Kd [5]: < 0.023 nM

B6: M0063-F02 Fab (Fab, V domains shown)
VH: EVQLLESGGGLVQPGGSLRLSCAASGFTFSKYEMDWVRQAPGKGLEWVSVISSSGGGTIYADSVKGRFTISRDNSKNTLYLQMNSLRAEDTAMYYCARGRTLYGGAFDIWGQGTMVTVSS
VL: DIQMTQSPSSLSASVGDRVTITCRASQPINTYLNWYQQRPGKAPRILIYTSSTLQSGVPSRFSGSGSGTDFTLTISSVQPEDFATYYCQQSYSFPLTFGGGTKVEIKR
Kd [6]: 2.78 nM | Kd [7]: 0.2 nM | Kd [8]: 0.12 nM | IC50, IGF-IIE stimulated BA/F3 cell proliferation (MTS) [1]: 2.04 µg/mL | Kd [9]: 1.47 nM

B7: M0063-F02 IgG (antibody, V domains shown)
VH: B6 VH
VL: DIQMTQSPSSLSASVGDRVTITCRASQPINTYLNWYQQRPGKAPRILIYTSSTLQSGVPSRFSGSGSGTDFTLTISSVQPEDFATYYCQQSYSFPLTFGGGTKVEIK
IC50, IGF-IIE stimulated BaF3 cell proliferation (Guava ViaCount) [1]: 0.85 nM | IC50, IGF-IIE stimulated BaF3 cell proliferation (Guava ViaCount), second study [1]: 10 nM | competition score (0 = does not compete significantly, 5 = competes strongly) [3]: 1 score 0-5 | competition score (0 = does not compete significantly, 5 = competes strongly) [4]: 1 score 0-5

Results, then the binder that gave them:

competition score (0 = does not compete significantly, 5 = competes strongly) [3]: 1 score 0-5 | competition score (0 = does not compete significantly, 5 = competes strongly) [4]: 2 score 0-5
B3: M0070-H08 IgG (antibody, V domains shown)
VH: EVQLLESGGGLVQPGGSLRLSCAASGFTFSRYWMIWVRQAPGKGLEWVSSIRSSGETKYADSVKGRFTISRDNSKNTLYLQMNSLRAEDTAVYYCARGPLSDYYDSSGYYFDAFDIWGQGTMVTVSS
VL: DIQMTQSPSSLSASAGDRVTITCRASQSISSYLNWYQQKPGKAPNLLIYTTSNLQGGVPSRFSGSGSGTDFTLTISSLQPEDFATYYCQQGYSFPLTFGGGTKVEIK

Kd [6]: 4.83 nM | Kd [7]: 0.39 nM | Kd [8]: 0.36 nM
B4: M0070-H08 Fab (Fab, V domains shown)
VH: B3 VH
VL: DIQMTQSPSSLSASAGDRVTITCRASQSISSYLNWYQQKPGKAPNLLIYTTSNLQGGVPSRFSGSGSGTDFTLTISSLQPEDFATYYCQQGYSFPLTFGGGTKVEIKR

Kd [6]: 3.95 nM | Kd [8]: 0.52 nM | IC50, IGF-IIE stimulated BA/F3 cell proliferation (MTS) [1]: 2.3 µg/mL | Kd [9]: 1.05 nM
B8: M0072-C06 Fab (Fab, V domains shown)
VH: EVQLLESGGGLVQPGGSLRLSCAASGFTFSAYIMTWVRQAPGKGLEWVSSISPSGGYTVYADSVKGRFTISRDNSKNTLYLQMNSLRAEDTAVYYCARDSGFGDPFDYWGQGTMVTVSS
VL: DIQMTQSPSSLSASVGDRVTITCRASQSIRNYLNWYQQKPGKAPKLLIYAASKLEDGVPSRFSGSGTGTDFTLTIRSLQPEDFASYFCQQSYSSPGITFGPGTKVEIKR

competition score (0 = does not compete significantly, 5 = competes strongly) [3]: 1 score 0-5 | competition score (0 = does not compete significantly, 5 = competes strongly) [4]: 2 score 0-5
B9: M0072-C06 IgG (antibody, V domains shown)
VH: B8 VH
VL: DIQMTQSPSSLSASVGDRVTITCRASQSIRNYLNWYQQKPGKAPKLLIYAASKLEDGVPSRFSGSGTGTDFTLTIRSLQPEDFASYFCQQSYSSPGITFGPGTKVEIK
